# From PMC7013354, “Selection and Characterization of CSFV-Specific Single-Domain Antibodies and Their Application along with Immunomagnetic Nanobeads and Quantum Dots” (BioMed Research International, 2020)
# B1: AF488-sdAbE2-2 probe (VHH)
# VHH: DVQLVESGGGLVQAGGSLRLSCTASGFTFDDYAMAWFRQPPGKEREGVSCISSSGGSTWYADSVKGRFTVSRDNAKNTLYLQMNSLKPEDTAMYYCAADWGRLCVVRGPRNEYKYSGQGTQVTVSS
# notes: also called AF488-labeled sdAbE2-2
# B2: recombinant sdAbE2-2 (VHH)
# VHH: B1 VHH
# notes: also called sdAdE2-2; sdAbE2s
# B3: recombinant sdAbE2-1 (VHH)
# VHH: QVQLLESGGGLVQPGGSLRLSCAASGYSFIDKTMAWVRQAPGKGLEWVSAIRMHNGSTYYADSVKGRFTISRDNSKNTLYLQMNSLRAEDTAVYYCARLSRRIQAKDKAKLKYWGQGTLVTVSS
# notes: also called sdAdE2-1; sdAbE2s
# B4: QD-sdAbE2-1 probe (VHH)
# VHH: B3 VHH
# notes: also called QD605-labeled sdAbE2-1; QDs-sdAbE2-1
# What was measured:
# Conditions in all cases: one partner purified
# [1] = biological target: T1, E2 of CSFV in infected ST cells and on CSFV virions (Classical swine fever virus, C-strain, UniProt Q96891, strain); test: immunostaining of cells or tissue
# T1 construct: also called E2 of CSFV in ST cells
# [2] = biological target: T1, E2 of CSFV in infected ST cells and on …; test: far-Western, overlay or dot blot
# [3] = biological target: T1, E2 of CSFV in infected ST cells and on …; test: pull-down
Binder,binding result [1],also measured
B1,binds,–
B2,–,binding result [2]: binds
B3,–,binding result [3]: binds
B4,binds,–
